Our source for the Km, kcat and kcat/Km values is article PMC5858142, “A novel cold-adapted esterase from Enterobacter cloacae: Characterization and improvement of its activity and thermostability via the site of Tyr193Cys” (Microbial Cell Factories, 2018).

What is called Km is the concentration of substrate that gives half-maximal velocity. Usually kcat stands for the number of substrate molecules converted per active site and unit of time at saturation. The term kcat/Km denotes the turnover number divided by the Michaelis constant.

In series [1] the test system is CC(=O)Oc1ccc([N+](=O)[O-])cc1. In words: purified protein. The settings on record: optimal pH 8.5, 40 °C, substrate not named, taken as pNPA (best substrate).
Another series relates to Lip. The settings on record: optimal pH 9.0, 40 °C; substrate not named, taken as pNPA (best substrate).

In the case of Lip (Enterobacter cloacae), in series [1], the Km came out at 643 ± 30 µM, the kcat was 9.8 ± 0.09 s⁻¹ and the kcat/Km amounted to 15200 ± 210 M⁻¹ s⁻¹.
Take `CC(=O)Oc1ccc([N+](=O)[O-])cc1` [C2, p-nitrophenyl acetate]: in the series with Lip, the Km stood at 363 ± 30 µM.
